Laboratory results taken from paper doi:10.1101/194993.
One block for each binder: values may come before it.

What was measured:
[1] = target: native tubulin purified from porcine brain, polymerised to microtubules (MTs) (porcine); test: co-sedimentation
[2] = target: native tubulin purified from porcine brain, polymerised to microtubules (MTs) (porcine); test: total internal reflection fluorescence microscopy
[3] = target: native tubulin purified from porcine brain, polymerised to microtubules (MTs) (porcine); test: co-sedimentation; remark: listed apart in the source
[4] = target: native tubulin purified from porcine brain, polymerised to microtubules (MTs) (porcine); test: co-sedimentation; remark: listed apart in the source

Kd [1]: 2290 nM
B1: full-length (FL) Cdt1^1-546, untagged (natural protein)
chain: MEQRRVTDFFARRRPGPPRIAPPKLACRTPSPARPALRAPASATSGSRKRARPPAAPGRDQARPPARRRLRLSVDEVSSPSTPEAPDIPACPSPGQKIKKSTPAAGQPPHLTSAQDQDTISELASCLQRARELGARVRALKASAQDAGESCTPEAEGRPEEPCGEKAPAYQRFHALAQPGLPGLVLPYKYQVLAEMFRSMDTIVGMLHNRSETPTFAKVQRGVQDMMRRRFEECNVGQIKTVYPASYRFRQERSVPTFKDGTRRSDYQLTIEPLLEQEADGAAPQLTASRLLQRRQIFSQKLVEHVKEHHKAFLASLSPAMVVPEDQLTRWHPRFNVDEVPDIEPAALPQPPATEKLTTAQEVLARARNLISPRMEKALSQLALRSAAPSSPGSPRPALPATPPATPPAASPSALKGVSQDLLERIRAKEAQKQLAQMTRCPEQEQRLQRLERLPELARVLRSVFVSERKPALSMEVACARMVGSCCTIMSPGEMEKHLLLLSELLPDWLSLHRIRTDTYVKLDKAADLAHITARLAHQTRAEEGL

reduction of MT binding against Cdt1^92-546 [1]: 50%
B2: Cdt1^410-546 (N-terminal GFP fusion) (domain or fragment)
chain: ASPSALKGVSQDLLERIRAKEAQKQLAQMTRCPEQEQRLQRLERLPELARVLRSVFVSERKPALSMEVACARMVGSCCTIMSPGEMEKHLLLLSELLPDWLSLHRIRTDTYVKLDKAADLAHITARLAHQTRAEEGL

Second part, the binder before the results:

B3: Cdt1^92-546 (human Cdt1 devoid of the N-terminal 92 aa, N-terminal GFP fusion) (domain or fragment)
chain: PSPGQKIKKSTPAAGQPPHLTSAQDQDTISELASCLQRARELGARVRALKASAQDAGESCTPEAEGRPEEPCGEKAPAYQRFHALAQPGLPGLVLPYKYQVLAEMFRSMDTIVGMLHNRSETPTFAKVQRGVQDMMRRRFEECNVGQIKTVYPASYRFRQERSVPTFKDGTRRSDYQLTIEPLLEQEADGAAPQLTASRLLQRRQIFSQKLVEHVKEHHKAFLASLSPAMVVPEDQLTRWHPRFNVDEVPDIEPAALPQPPATEKLTTAQEVLARARNLISPRMEKALSQLALRSAAPSSPGSPRPALPATPPATPPAASPSALKGVSQDLLERIRAKEAQKQLAQMTRCPEQEQRLQRLERLPELARVLRSVFVSERKPALSMEVACARMVGSCCTIMSPGEMEKHLLLLSELLPDWLSLHRIRTDTYVKLDKAADLAHITARLAHQTRAEEGL
Kd [2]: 460 nM
dwell time [2]: 2.37 s
kon [2]: 1070 M⁻¹ s⁻¹
Kd [3]: 2030 nM
Kd [1]: 2200 nM
binding left in the presence of 250 mM NaCl [1]: 50%
Kd [4]: 1850 nM

B4: Cdt1^92-546 8D (Aurora B phosphomimetic mutant) (domain or fragment)
chain: PSPGQKIKKDDPAAGQPPHLTSAQDQDTISELASCLQRARELGARVRALKADAQDAGESCTPEAEGRPEEPCGEKAPAYQRFHALAQPGLPGLVLPYKYQVLAEMFRSMDTIVGMLHNRSETPTFAKVQRGVQDMMRRRFEECNVGQIKTVYPASYRFRQERSVPTFKDGTRRDDYQLDIEPLLEQEADGAAPQLDASRLLQRRQIFSQKLVEHVKEHHKAFLASLSPAMVVPEDQLDRWHPRFNVDEVPDIEPAALPQPPATEKLDTAQEVLARARNLISPRMEKALSQLALRSAAPSSPGSPRPALPATPPATPPAASPSALKGVSQDLLERIRAKEAQKQLAQMTRCPEQEQRLQRLERLPELARVLRSVFVSERKPALSMEVACARMVGSCCTIMSPGEMEKHLLLLSELLPDWLSLHRIRTDTYVKLDKAADLAHITARLAHQTRAEEGL
Kd [3]: 5500 nM
